Measured values taken from patent US20140302035A1 (MERRIMACK PHARMACEUTICALS, published 2014).

What was measured:
[1] = biological target: T1, Human EpCAM-Fc-his tagged (human); test: BLI (ForteBio Octet), antibody loaded on Protein A tips, recombinant polyhistidine-tagged EpCAM-Fc in solution
T1 construct: also called Recombinant polyhistidine-tagged EpCAM-Fc; recombinant EpCAM

cMet-his = biological target: T2, cMet-his (Homo sapiens (Human), UniProt P08581 25-933); test: BLI (ForteBio Octet), antibody loaded on Protein A tips, recombinant polyhistidine-tagged c-Met in solution, 1:1 model
T2 construct: also called his tagged cMET; Recombinant polyhistidine-tagged c-Met
Method: (§1) For Octet analysis, all reagents and samples are brought to room temperature. Protein A sensor tips (ForteBio, #18-5010) are hydrated for 10 minutes in 1×PBS. Assay steps include: 1-2 minutes of equilibration in 1×PBS, 4 minutes of antibody loading (concentration of 50 μg/ml in 1×PBS), 1-2 minutes of baseline stabilization, 4 minutes of antibody:antigen association, and 4 minutes of antibody:antigen dissociation. 1×PBS is used as the matrix throughout. Data are analyzed with Octet Data Analysis software, processed, and fit to a 1:1 binding model to determine kinetic parameters (Kd, kₒₙ and kdiss).
Table A-4 describes approximate c-Met binding affinity and dissociation rate as determined for Ab#5 and Ab#7.

[2] = biological target: T1, Human EpCAM-Fc-his tagged; test: BLI (ForteBio Octet), antibody loaded on Protein A tips, recombinant polyhistidine-tagged EpCAM-Fc in solution, 1:1 model
Outline: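 Biolayer interferometry at room temperature in 1×PBS: antibody (50 μg/ml) captured on Protein A tips for 4 min, then 4 min association with antigen in solution and 4 min dissociation. Kd, kₒₙ and kdiss were obtained from a 1:1 binding model fit.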

[3] = biological target: T1, Human EpCAM-Fc-his tagged; test: BLI (ForteBio Octet), repeat analysis, antibody on Protein A tips, recombinant polyhistidine-tagged EpCAM-Fc in solution, 1:1 model
Method: as §1
Table A-3 describes a repeat analysis for Ab#5, Ab#7, and Ab#13. For the repeat experiment, Kd and kdiss values for Ab#5, Ab#7, and Ab#13 are substantially equivalent to those determined for Ab#5, Ab#7, and Ab#13 in the initial experiment.

T1 sequence (chain, as listed by the source): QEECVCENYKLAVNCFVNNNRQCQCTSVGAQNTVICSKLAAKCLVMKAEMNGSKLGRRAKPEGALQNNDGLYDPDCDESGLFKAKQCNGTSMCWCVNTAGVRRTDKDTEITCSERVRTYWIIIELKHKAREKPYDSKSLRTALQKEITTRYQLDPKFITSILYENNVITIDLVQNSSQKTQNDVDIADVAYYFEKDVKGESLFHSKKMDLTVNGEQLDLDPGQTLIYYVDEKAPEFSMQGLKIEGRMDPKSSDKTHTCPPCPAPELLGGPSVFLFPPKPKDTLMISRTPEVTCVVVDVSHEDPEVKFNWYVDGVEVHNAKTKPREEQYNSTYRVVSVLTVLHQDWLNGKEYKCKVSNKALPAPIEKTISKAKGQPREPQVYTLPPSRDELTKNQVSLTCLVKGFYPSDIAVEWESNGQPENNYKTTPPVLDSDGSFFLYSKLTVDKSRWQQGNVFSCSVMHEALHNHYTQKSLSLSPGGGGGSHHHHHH

| Binder | binding result [1] | Kd (cMet-his) [nM] | koff (cMet-his) [s⁻¹] | Kd [2] [nM] | koff [2] [s⁻¹] | Kd [3] [nM] | koff [3] [s⁻¹] |
| --- | --- | --- | --- | --- | --- | --- | --- |
| Ab#2 (bispecific antibody, human IgG1, kappa, Anti-c-Met Fab / tandem Fc / anti-EpCAM scFv TFcBA; also called Antibody #2) heavy: QLQLQESGPGLVKPSETLSLTCTVSGGSISSSVYYWSWIRQPPGKGLEWIGVIYPSGNTYYSPSLKSRVTISVDTSKNQFSLKLSSVTAADTAVYYCARTIYDLFDIWGQGTMVTVSSASTKGPSVFPLAPSSKSTSGGTAALGCLVKDYFPEPVTVSWNSGALTSGVHTFPAVLQSSGLYSLSSVVTVPSSSLGTQTYICNVNHKPSNTKVDKKVEPKSCDKTHTCPSCPAPEFLGGPSVFLFPPKPKDTLMISRTPEVTCVVVDVSQEDPEVQFNWYVDGVEVHNAKTKPREEQFNSKYRVVSVLTVLHQDWLNGKEYKCKVSNKGLPSSIEKTISKAKGQPREPQVYTLPPSREEMTKNQVSLSCAVKGFYPSDIAVEWESNGQPENNYKTTPPVLDSDGSFFLVSKLTVDKSRWQQGNVFSCSVMHEALHNHYTQKSLSLSKSCDKTGGGGSGGGGSGGGGSGGGGSGGGGSGGGGSGGGGSGGGGSCPSCPAPEFLGGPSVFLFPPKPKDTLMISRTPEVTCVVVDVSQEDPEVQFNWYVDGVEVHNAKTKPREEQFNSDYRVVSVLTVLHQDWLNGKEYKCKVSNKGLPSSIEKTISKAKGQPREPQVYTLPPSREEMTKNQVSLWCLVKGFYPSDIAVEWESNGQPENNYKTTPPVLDSDGSFFLYSKLTVDKSRWQQGNVFSCSVMHEALHNHYTQKSLSLSGECGGGGSGGGGSQVQLVQSGSELKKPGESVKVSCKASGYTFTNYGMHWVRQAPGQGLKWMGWINTYTGESTYADDFKGRFAFSLDTSASTAYLQISSLKAEDTAVYFCARFAIKGDYWGQGTLVTVSSASTGGGGSGGGGSGGGGSGGGGSDIVMTQSPLSLPVTPGEPASISCRSTKSLLHSDGITYLYWYLQKPGQSPQLLIYQLSNLASGVPDRFSSSGSGTDFTLKISRVEAEDEGVYYCAQNLEIPYTFGQGTKVEIK light: DIQMTQSPSSVSASVGDRVTITCRASQGISSWLAWYQQKPGKAPKLLIYAASSLQSGVPSRFSGSGSGTDFTLTISSLQPEDFATYYCLQANSFPPTFGGGTKVEIKRTVAAPSVFIFPPSDEQLKSGTASVVCLLNNFYPREAKVQWKVDNALQSGNSQESVTEQDSKDSTYSLSSTLTLSKADYEKHKVYACEVTHQGLSSPVTKSFNRGEC | no binding |  |  |  |  |  |  |
| Ab#5 (bispecific antibody, human IgG1, kappa, Anti-c-Met Fab / tandem Fc / anti-EpCAM scFv TFcBA; also called Antibody #5) heavy: QLQLQESGPGLVKPSETLSLTCTVSGGSISSSVYYWSWIRQPPGKGLEWIGVIYPSGNTYYSPSLKSRVTISVDTSKNQFSLKLSSVTAADTAVYYCARTIYDLFDIWGQGTMVTVSSASTKGPSVFPLAPSSKSTSGGTAALGCLVKDYFPEPVTVSWNSGALTSGVHTFPAVLQSSGLYSLSSVVTVPSSSLGTQTYICNVNHKPSNTKVDKKVEPKSCDKTHTCPSCPAPEFLGGPSVFLFPPKPKDTLMISRTPEVTCVVVDVSQEDPEVQFNWYVDGVEVHNAKTKPREEQFNSKYRVVSVLTVLHQDWLNGKEYKCKVSNKGLPSSIEKTISKAKGQPREPQVYTLPPSREEMTKNQVSLSCAVKGFYPSDIAVEWESNGQPENNYKTTPPVLDSDGSFFLVSKLTVDKSRWQQGNVFSCSVMHEALHNHYTQKSLSLSKSCDKTGGGGSGGGGSGGGGSGGGGSGGGGSGGGGSGGGGSGGGGSCPSCPAPEFLGGPSVFLFPPKPKDTLMISRTPEVTCVVVDVSQEDPEVQFNWYVDGVEVHNAKTKPREEQFNSDYRVVSVLTVLHQDWLNGKEYKCKVSNKGLPSSIEKTISKAKGQPREPQVYTLPPSREEMTKNQVSLWCLVKGFYPSDIAVEWESNGQPENNYKTTPPVLDSDGSFFLYSKLTVDKSRWQQGNVFSCSVMHEALHNHYTQKSLSLSGECGGGGSGGGGSDIVMTQSPLSLPVTPGEPASISCRSTKSLLHSNGITYLYWYLQKPGQSPQLLIYQMSNLASGVPDRFSSSGSGTDFTLKISRVEAEDEGVYYCAQNLEIPRTFGGGTKLEIKRTGGGGSGGGGSGGGGSGGGGSQVQLVQSGAEVKKPGESVKISCKASGYTFTNYGMNWVRQAPGQGLKWMGWINTYTGESTYADDFKGRFAFSLDTSASTAYLQLSSLRSEDTAVYFCARFAIKGDYWGQGTLVTVSS light: DIQMTQSPSSVSASVGDRVTITCRASQGISSWLAWYQQKPGKAPKLLIYAASSLQSGVPSRFSGSGSGTDFTLTISSLQPEDFATYYCLQANSFPPTFGGGTKVEIKRTVAAPSVFIFPPSDEQLKSGTASVVCLLNNFYPREAKVQWKVDNALQSGNSQESVTEQDSKDSTYSLSSTLTLSKADYEKHKVYACEVTHQGLSSPVTKSFNRGEC |  | 3.4 | 0.000588 | 3.57 | 0.000346 | 2.67 | 0.000194 |
| Ab#7 (bispecific antibody, human IgG1, kappa, Anti-c-Met Fab / tandem Fc / anti-EpCAM scFv TFcBA; also called Antibody #7) heavy: QLQLQESGPGLVKPSETLSLTCTVSGGSISSSVYYWSWIRQPPGKGLEWIGVIYPSGNTYYSPSLKSRVTISVDTSKNQFSLKLSSVTAADTAVYYCARTIYDLFDIWGQGTMVTVSSASTKGPSVFPLAPSSKSTSGGTAALGCLVKDYFPEPVTVSWNSGALTSGVHTFPAVLQSSGLYSLSSVVTVPSSSLGTQTYICNVNHKPSNTKVDKKVEPKSCDKTHTCPSCPAPEFLGGPSVFLFPPKPKDTLMISRTPEVTCVVVDVSQEDPEVQFNWYVDGVEVHNAKTKPREEQFNSKYRVVSVLTVLHQDWLNGKEYKCKVSNKGLPSSIEKTISKAKGQPREPQVYTLPPSREEMTKNQVSLSCAVKGFYPSDIAVEWESNGQPENNYKTTPPVLDSDGSFFLVSKLTVDKSRWQQGNVFSCSVMHEALHNHYTQKSLSLSKSCDKTGGGGSGGGGSGGGGSGGGGSGGGGSGGGGSGGGGSGGGGSCPSCPAPEFLGGPSVFLFPPKPKDTLMISRTPEVTCVVVDVSQEDPEVQFNWYVDGVEVHNAKTKPREEQFNSDYRVVSVLTVLHQDWLNGKEYKCKVSNKGLPSSIEKTISKAKGQPREPQVYTLPPSREEMTKNQVSLWCLVKGFYPSDIAVEWESNGQPENNYKTTPPVLDSDGSFFLYSKLTVDKSRWQQGNVFSCSVMHEALHNHYTQKSLSLSGECGGGGSGGGGSDIVMTQSPLSLPVTPGEPASISCRSTKSLLHSDGITYLYWYLQKPGQSPQLLIYQLSNLASGVPDRFSSSGSGTDFTLKISRVEAEDEGVYYCAQNLEIPRTFGCGTKLEIKRTGGGGSGGGGSGGGGSGGGGSQVQLVQSGAEVKKPGESVKISCKASGYTFTNYGMNWVRQAPGQCLKWMGWINTYTGESTYADDFKGRFAFSLDTSASTAYLQLSSLRSEDTAVYFCARFAIKGDYWGQGTLVTVSS light: DIQMTQSPSSVSASVGDRVTITCRASQGISSWLAWYQQKPGKAPKLLIYAASSLQSGVPSRFSGSGSGTDFTLTISSLQPEDFATYYCLQANSFPPTFGGGTKVEIKRTVAAPSVFIFPPSDEQLKSGTASVVCLLNNFYPREAKVQWKVDNALQSGNSQESVTEQDSKDSTYSLSSTLTLSKADYEKHKVYACEVTHQGLSSPVTKSFNRGEC |  | 2.81 | 0.000554 | 25.9 | 0.00132 | 15.4 | 0.00137 |
